Starred links: 1 amine or outer side, 2 acyl side, 3 side chain; linkers in the order of their positions; H or OH if unused. Non-standard residues stand in square brackets, D forms with d. *: point of attachment. Trp(7-F) = N[C@@H](Cc1c[nH]c2c(F)cccc12)C(=O)O; Trp(7-Me) = Cc1cccc2c(C[C@H](N)C(=O)O)c[nH]c12; C18 diacid = O=C(O)CCCCCCCCCCCCCCCCC(=O)*; γGlu = O=C(O)[C@H](CCC(=O)[*:2])N[*:1]; Palmitoyl = CCCCCCCCCCCCCCCC(=O)*; Nle = CCCC[C@H](N)C(=O)O; AEEA = NCCOCCOCC(=O)O; Sar = CNCC(=O)O
B1: Peptide 108 (peptide)
peptide: {C18 diacid}-[γGlu][AEEA][AEEA]GNHRAV[dA]HL[Nle]-NH2
SMILES: CCCC[C@H](NC(=O)[C@H](CC(C)C)NC(=O)[C@H](Cc1c[nH]cn1)NC(=O)[C@@H](C)NC(=O)[C@@H](NC(=O)[C@H](C)NC(=O)[C@H](CCCNC(=N)N)NC(=O)[C@H](Cc1c[nH]cn1)NC(=O)[C@H](CC(N)=O)NC(=O)CNC(=O)COCCOCCNC(=O)COCCOCCNC(=O)CC[C@H](NC(=O)CCCCCCCCCCCCCCCCC(=O)O)C(=O)O)C(C)C)C(N)=O
B2: Peptide 109 (peptide)
peptide: {C18 diacid}-[γGlu][AEEA][AEEA][AEEA][AEEA]GRH[Trp(7-F)]AV[dA]HL[Nle]-NH2
SMILES: CCCC[C@H](NC(=O)[C@H](CC(C)C)NC(=O)[C@H](Cc1c[nH]cn1)NC(=O)[C@@H](C)NC(=O)[C@@H](NC(=O)[C@H](C)NC(=O)[C@H](Cc1c[nH]c2c(F)cccc12)NC(=O)[C@H](Cc1c[nH]cn1)NC(=O)[C@H](CCCNC(=N)N)NC(=O)CNC(=O)COCCOCCNC(=O)COCCOCCNC(=O)COCCOCCNC(=O)COCCOCCNC(=O)CC[C@H](NC(=O)CCCCCCCCCCCCCCCCC(=O)O)C(=O)O)C(C)C)C(N)=O
B3: Peptide 110 (peptide)
peptide: {C18 diacid}-[γGlu][AEEA][AEEA][AEEA][AEEA]GNH[Trp(7-F)]AV[dA]HL[Nle]-NH2
SMILES: CCCC[C@H](NC(=O)[C@H](CC(C)C)NC(=O)[C@H](Cc1c[nH]cn1)NC(=O)[C@@H](C)NC(=O)[C@@H](NC(=O)[C@H](C)NC(=O)[C@H](Cc1c[nH]c2c(F)cccc12)NC(=O)[C@H](Cc1c[nH]cn1)NC(=O)[C@H](CC(N)=O)NC(=O)CNC(=O)COCCOCCNC(=O)COCCOCCNC(=O)COCCOCCNC(=O)COCCOCCNC(=O)CC[C@H](NC(=O)CCCCCCCCCCCCCCCCC(=O)O)C(=O)O)C(C)C)C(N)=O
B4: Peptide 112 (peptide)
peptide: Palmitoyl-[γGlu][AEEA][AEEA]GNH[Trp(7-Me)]AV[dA]HL[Nle][Sar]-NH2
SMILES: CCCCCCCCCCCCCCCC(=O)N[C@@H](CCC(=O)NCCOCCOCC(=O)NCCOCCOCC(=O)NCC(=O)N[C@@H](CC(N)=O)C(=O)N[C@@H](Cc1c[nH]cn1)C(=O)N[C@@H](Cc1c[nH]c2c(C)cccc12)C(=O)N[C@@H](C)C(=O)N[C@H](C(=O)N[C@H](C)C(=O)N[C@@H](Cc1c[nH]cn1)C(=O)N[C@@H](CC(C)C)C(=O)N[C@@H](CCCC)C(=O)N(C)CC(N)=O)C(C)C)C(=O)O
B5: Peptide 114 (peptide)
peptide: {C18 diacid}-[γGlu][AEEA][AEEA]GNHWAV[dA]HL[Nle]R-NH2
SMILES: CCCC[C@H](NC(=O)[C@H](CC(C)C)NC(=O)[C@H](Cc1c[nH]cn1)NC(=O)[C@@H](C)NC(=O)[C@@H](NC(=O)[C@H](C)NC(=O)[C@H](Cc1c[nH]c2ccccc12)NC(=O)[C@H](Cc1c[nH]cn1)NC(=O)[C@H](CC(N)=O)NC(=O)CNC(=O)COCCOCCNC(=O)COCCOCCNC(=O)CC[C@H](NC(=O)CCCCCCCCCCCCCCCCC(=O)O)C(=O)O)C(C)C)C(=O)N[C@@H](CCCNC(=N)N)C(N)=O
B6: Peptide 115 (peptide)
peptide: {C18 diacid}-[γGlu][AEEA][AEEA]GNHW[dA]V[dA]HL[Nle][Sar]-NH2
SMILES: CCCC[C@H](NC(=O)[C@H](CC(C)C)NC(=O)[C@H](Cc1c[nH]cn1)NC(=O)[C@@H](C)NC(=O)[C@@H](NC(=O)[C@@H](C)NC(=O)[C@H](Cc1c[nH]c2ccccc12)NC(=O)[C@H](Cc1c[nH]cn1)NC(=O)[C@H](CC(N)=O)NC(=O)CNC(=O)COCCOCCNC(=O)COCCOCCNC(=O)CC[C@H](NC(=O)CCCCCCCCCCCCCCCCC(=O)O)C(=O)O)C(C)C)C(=O)N(C)CC(N)=O
B7: Peptide 116 (peptide)
peptide: {C18 diacid}-[γGlu][AEEA][AEEA]GRHHAV[dA]HL[Nle]-NH2
SMILES: CCCC[C@H](NC(=O)[C@H](CC(C)C)NC(=O)[C@H](Cc1c[nH]cn1)NC(=O)[C@@H](C)NC(=O)[C@@H](NC(=O)[C@H](C)NC(=O)[C@H](Cc1c[nH]cn1)NC(=O)[C@H](Cc1c[nH]cn1)NC(=O)[C@H](CCCNC(=N)N)NC(=O)CNC(=O)COCCOCCNC(=O)COCCOCCNC(=O)CC[C@H](NC(=O)CCCCCCCCCCCCCCCCC(=O)O)C(=O)O)C(C)C)C(N)=O
B8: Peptide 117 (peptide)
peptide: {C18 diacid}-[γGlu][AEEA][AEEA][AEEA][AEEA]GRH[Trp(7-Me)]AV[dA]HL[Nle]-NH2
SMILES: CCCC[C@H](NC(=O)[C@H](CC(C)C)NC(=O)[C@H](Cc1c[nH]cn1)NC(=O)[C@@H](C)NC(=O)[C@@H](NC(=O)[C@H](C)NC(=O)[C@H](Cc1c[nH]c2c(C)cccc12)NC(=O)[C@H](Cc1c[nH]cn1)NC(=O)[C@H](CCCNC(=N)N)NC(=O)CNC(=O)COCCOCCNC(=O)COCCOCCNC(=O)COCCOCCNC(=O)COCCOCCNC(=O)CC[C@H](NC(=O)CCCCCCCCCCCCCCCCC(=O)O)C(=O)O)C(C)C)C(N)=O
B9: Peptide 118 (peptide)
peptide: {C18 diacid}-[γGlu][AEEA][AEEA][AEEA][AEEA]GRHWAV[dA]HL[Nle]-NH2
SMILES: CCCC[C@H](NC(=O)[C@H](CC(C)C)NC(=O)[C@H](Cc1c[nH]cn1)NC(=O)[C@@H](C)NC(=O)[C@@H](NC(=O)[C@H](C)NC(=O)[C@H](Cc1c[nH]c2ccccc12)NC(=O)[C@H](Cc1c[nH]cn1)NC(=O)[C@H](CCCNC(=N)N)NC(=O)CNC(=O)COCCOCCNC(=O)COCCOCCNC(=O)COCCOCCNC(=O)COCCOCCNC(=O)CC[C@H](NC(=O)CCCCCCCCCCCCCCCCC(=O)O)C(=O)O)C(C)C)C(N)=O

target: human GRP receptor (human, UniProt P30550 1-384); test: cell-based or functional assay
Sequence (P30550 whole entry): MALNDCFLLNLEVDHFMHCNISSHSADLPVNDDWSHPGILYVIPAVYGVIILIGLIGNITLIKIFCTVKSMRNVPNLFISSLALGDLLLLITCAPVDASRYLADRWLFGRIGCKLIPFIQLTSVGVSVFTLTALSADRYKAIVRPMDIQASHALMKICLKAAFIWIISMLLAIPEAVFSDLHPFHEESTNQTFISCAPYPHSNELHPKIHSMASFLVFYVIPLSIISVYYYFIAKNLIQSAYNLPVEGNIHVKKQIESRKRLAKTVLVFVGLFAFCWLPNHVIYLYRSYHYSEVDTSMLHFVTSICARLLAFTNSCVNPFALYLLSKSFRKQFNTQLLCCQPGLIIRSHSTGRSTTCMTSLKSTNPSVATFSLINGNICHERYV

Row | Binder | hIP1 GRPR EC50
1 | B1 | > 10000 nM
2 | B2 | 18.7 nM
3 | B3 | 12.4 nM
4 | B4 | > 10000 nM
5 | B5 | > 10000 nM
6 | B6 | > 10000 nM
7 | B7 | > 10000 nM
8 | B8 | 16.5 nM
9 | B9 | 8.02 nM
